Test [1] has as its target T1, AnkG 38–903 (MBD + AI-c + AI-b) (rat, UniProt O70511-1 38-903).
T1 construct: numbers count on: rat AnkG NM_001033984.1 (MBD-UPA); also called extended AnkG MBD; source: E. coli BL21 (DE3), purified (Ni2+-NTA, size exclusion)
T1 sequence (looked up): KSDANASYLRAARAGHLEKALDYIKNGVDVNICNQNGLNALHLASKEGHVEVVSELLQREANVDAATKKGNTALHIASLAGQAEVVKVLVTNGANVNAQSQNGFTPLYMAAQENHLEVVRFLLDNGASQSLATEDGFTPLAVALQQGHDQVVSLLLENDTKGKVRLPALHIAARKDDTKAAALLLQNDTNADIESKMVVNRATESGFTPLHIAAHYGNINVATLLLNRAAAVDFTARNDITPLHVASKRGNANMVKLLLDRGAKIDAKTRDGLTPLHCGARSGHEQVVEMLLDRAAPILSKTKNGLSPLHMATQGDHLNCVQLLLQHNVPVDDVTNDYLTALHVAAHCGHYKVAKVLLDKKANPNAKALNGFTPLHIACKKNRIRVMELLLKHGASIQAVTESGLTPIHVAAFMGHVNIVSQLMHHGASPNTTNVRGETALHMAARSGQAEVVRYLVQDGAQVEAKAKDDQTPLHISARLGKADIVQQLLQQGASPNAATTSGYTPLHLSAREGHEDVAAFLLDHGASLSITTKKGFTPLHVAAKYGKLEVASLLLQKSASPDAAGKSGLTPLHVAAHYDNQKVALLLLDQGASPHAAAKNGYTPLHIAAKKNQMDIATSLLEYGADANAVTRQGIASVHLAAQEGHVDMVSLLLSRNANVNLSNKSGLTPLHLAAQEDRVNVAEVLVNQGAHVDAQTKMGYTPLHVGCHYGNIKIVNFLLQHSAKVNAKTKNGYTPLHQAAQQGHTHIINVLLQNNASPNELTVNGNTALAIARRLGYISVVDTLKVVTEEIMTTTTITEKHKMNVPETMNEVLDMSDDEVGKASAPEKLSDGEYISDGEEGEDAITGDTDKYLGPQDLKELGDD
Description: ITC; VP-ITC MicroCal, 25 °C; proteins in 50 mM Tris-HCl pH 7.8, 1 mM DTT, 1 mM EDTA with 100 mM or 500 mM NaCl as required; who was titrated is not told. As to conditions: both partners purified. Background: Isothermal titration calorimetry measures the heat released or taken up as one component is titrated into another.

Test [2] concerns the target T2, AnkB 28–965 (MBD + AI-c + AI-b) (human, UniProt Q01484-2 28-965).
T2 construct: numbers count on: human 220 kDa AnkB NM_020977.3; also called extended MBD containing the entire linker; source: E. coli BL21 (DE3), purified (Ni2+-NTA, size exclusion)
T2 sequence (looked up): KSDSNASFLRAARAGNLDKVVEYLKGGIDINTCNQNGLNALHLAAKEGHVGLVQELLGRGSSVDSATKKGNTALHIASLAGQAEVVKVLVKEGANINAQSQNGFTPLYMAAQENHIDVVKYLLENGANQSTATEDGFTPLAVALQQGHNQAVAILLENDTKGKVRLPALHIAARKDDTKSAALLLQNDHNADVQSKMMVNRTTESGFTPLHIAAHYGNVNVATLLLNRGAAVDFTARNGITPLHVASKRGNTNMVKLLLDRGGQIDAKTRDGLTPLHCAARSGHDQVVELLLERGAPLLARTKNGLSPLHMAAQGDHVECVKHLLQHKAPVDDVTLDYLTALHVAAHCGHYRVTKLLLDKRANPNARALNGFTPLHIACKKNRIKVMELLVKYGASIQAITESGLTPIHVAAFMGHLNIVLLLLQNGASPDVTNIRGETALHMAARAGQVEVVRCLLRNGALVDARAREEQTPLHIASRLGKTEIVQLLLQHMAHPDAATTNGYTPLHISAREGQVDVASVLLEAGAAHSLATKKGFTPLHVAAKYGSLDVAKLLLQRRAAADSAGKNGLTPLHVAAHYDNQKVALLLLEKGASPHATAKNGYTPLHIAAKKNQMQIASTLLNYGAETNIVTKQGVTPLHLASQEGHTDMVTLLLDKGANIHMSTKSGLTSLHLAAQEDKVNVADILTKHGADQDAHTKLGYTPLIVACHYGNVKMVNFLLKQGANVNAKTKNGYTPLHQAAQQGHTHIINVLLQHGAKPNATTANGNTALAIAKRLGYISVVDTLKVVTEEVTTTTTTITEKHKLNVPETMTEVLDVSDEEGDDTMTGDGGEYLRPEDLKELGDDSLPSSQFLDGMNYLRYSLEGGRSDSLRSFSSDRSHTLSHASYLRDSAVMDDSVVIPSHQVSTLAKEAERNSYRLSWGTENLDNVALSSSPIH
The test is described as above. The settings on record: both partners purified.

B1: Nav1.2 (aa 1035–1129) (domain or fragment, mouse, UniProt B1AWN6 1035-1129, looked up)
chain: KALDEIKPLEDLNNKKDSCISNHTTIEIGKDLNYLKDGNGTTSGIGSSVEKYVVDESDYMSFINNPSLTVTVPIAVGESDFENLNTEEFSSESDM
notes: source: E. coli BL21 (DE3), purified (Ni2+-NTA, size exclusion)
With B1, the binding result in test [1] and in test [2] was “binds” in each case.

The values above are taken from paper PMC5779224, “Autoinhibition of ankyrin-B/G membrane target bindings by intrinsically disordered segments from the tail regions” (eLife, 2017).
